The record followed here is patent US7737250B2, “Peptides for treating axonal damage, inhibition of neurotransmitter release and pain transmission, and blocking calcium influx in neurons” (Mount Sinai School of Medicine of New York University, priority 2003, dated 2010).

For experiment [1], the target named is T1, L1-CAM-ankyrin interactions (Homo sapiens, UniProt Q01484).
T1 construct: expressed in transfected cells; host or cells: human kidney 293 cells
The experiment in a line: Ankyrin recruitment assay: ankyrinB co-localization with L1-CAM at the membrane of transfected 293 cells. It is filed as cell-based. The settings on record: 1.4 μg/ml peptide for 30 minutes. Here is the method:
Cell culture aid transfection: Human kidney 293 cells were cultured in DMEM medium (Gibco) supplemented with penicillin, streptomycin, L-glutamine, and 10% fetal bovine serum (Hyclone). The pMyc-L1-CAM or pL1-CAM-GFP expression constructs were transfected into cultured human kidney 293 cells using Lipofectamine plus (Invitrogen) according to manufacturer instructions. Cells were cultured for 24-48 hours and then used, or cultured continuously in the presence of 0.5 μg.mL G418 (Gibco) to select for stably transfected cells lines, to generate stable pooled lines of L1-CAM-expressing cells.
In some instances, transfected 293 cells were treated with neural growth factor (NGF) or epidermal growth factor (EGF) to stimulate phosphorylation of tyrosine 1229 (Y1229) of the L1-CAM cytoplasmic domain, and thereby inhibit ankyrin binding. In these cases, cells were treated with 50 ng/mL EGF (Gibco) or 100 ng/mL NGF (Gibco) for 1 hour prior to the assay. […]
Ankyrin and L1-CAM were detected by indirect immunofluorescence in double-labeled confocal sections through cell aggregates to permit the visualization of L1 and ankyrinB at the cell membrane. Expression of myc-L1-CAM was detected using a polyclonal anti-L1-CAM rabbit antibody. […] Ankyrin was detected using a monoclonal anti-ankyrinB mouse antibody (BD PharMingen). […]
Quantification of ankyrin immunolocalization: Confocal micrographs were then used to quantify the degree of ankyrin localization to the cell membrane of myc-L1-CAM expressing cells. Images were analyzed using ImageJ (NIH) under Macintosh OSX. The method for quantifying ankyrinB localization to the membrane uses densitometry of a line scan perpendicular to and crossing a cell-cell junction. […]
The densitometry intensity profile of the scanned line was used to determine a minimum ankyrinB signal for comparison to the value of the ankyrinB signal at the point where the maximum signal in the L1-CAM channel occurs. […] Minima were determined from the regions of the line overlapping the cytoplasm of either of the two cells. […]

Another experiment deals with Cav2.2 channels. Description: Calcium channel distribution by confocal indirect immunofluorescence in DRG neurons. In kind it is cell-based, chicken. The settings on record: DRG neurons pretreated with peptide 1.4 μg/ml, 30 min.

T1 sequence (Q01484 whole entry): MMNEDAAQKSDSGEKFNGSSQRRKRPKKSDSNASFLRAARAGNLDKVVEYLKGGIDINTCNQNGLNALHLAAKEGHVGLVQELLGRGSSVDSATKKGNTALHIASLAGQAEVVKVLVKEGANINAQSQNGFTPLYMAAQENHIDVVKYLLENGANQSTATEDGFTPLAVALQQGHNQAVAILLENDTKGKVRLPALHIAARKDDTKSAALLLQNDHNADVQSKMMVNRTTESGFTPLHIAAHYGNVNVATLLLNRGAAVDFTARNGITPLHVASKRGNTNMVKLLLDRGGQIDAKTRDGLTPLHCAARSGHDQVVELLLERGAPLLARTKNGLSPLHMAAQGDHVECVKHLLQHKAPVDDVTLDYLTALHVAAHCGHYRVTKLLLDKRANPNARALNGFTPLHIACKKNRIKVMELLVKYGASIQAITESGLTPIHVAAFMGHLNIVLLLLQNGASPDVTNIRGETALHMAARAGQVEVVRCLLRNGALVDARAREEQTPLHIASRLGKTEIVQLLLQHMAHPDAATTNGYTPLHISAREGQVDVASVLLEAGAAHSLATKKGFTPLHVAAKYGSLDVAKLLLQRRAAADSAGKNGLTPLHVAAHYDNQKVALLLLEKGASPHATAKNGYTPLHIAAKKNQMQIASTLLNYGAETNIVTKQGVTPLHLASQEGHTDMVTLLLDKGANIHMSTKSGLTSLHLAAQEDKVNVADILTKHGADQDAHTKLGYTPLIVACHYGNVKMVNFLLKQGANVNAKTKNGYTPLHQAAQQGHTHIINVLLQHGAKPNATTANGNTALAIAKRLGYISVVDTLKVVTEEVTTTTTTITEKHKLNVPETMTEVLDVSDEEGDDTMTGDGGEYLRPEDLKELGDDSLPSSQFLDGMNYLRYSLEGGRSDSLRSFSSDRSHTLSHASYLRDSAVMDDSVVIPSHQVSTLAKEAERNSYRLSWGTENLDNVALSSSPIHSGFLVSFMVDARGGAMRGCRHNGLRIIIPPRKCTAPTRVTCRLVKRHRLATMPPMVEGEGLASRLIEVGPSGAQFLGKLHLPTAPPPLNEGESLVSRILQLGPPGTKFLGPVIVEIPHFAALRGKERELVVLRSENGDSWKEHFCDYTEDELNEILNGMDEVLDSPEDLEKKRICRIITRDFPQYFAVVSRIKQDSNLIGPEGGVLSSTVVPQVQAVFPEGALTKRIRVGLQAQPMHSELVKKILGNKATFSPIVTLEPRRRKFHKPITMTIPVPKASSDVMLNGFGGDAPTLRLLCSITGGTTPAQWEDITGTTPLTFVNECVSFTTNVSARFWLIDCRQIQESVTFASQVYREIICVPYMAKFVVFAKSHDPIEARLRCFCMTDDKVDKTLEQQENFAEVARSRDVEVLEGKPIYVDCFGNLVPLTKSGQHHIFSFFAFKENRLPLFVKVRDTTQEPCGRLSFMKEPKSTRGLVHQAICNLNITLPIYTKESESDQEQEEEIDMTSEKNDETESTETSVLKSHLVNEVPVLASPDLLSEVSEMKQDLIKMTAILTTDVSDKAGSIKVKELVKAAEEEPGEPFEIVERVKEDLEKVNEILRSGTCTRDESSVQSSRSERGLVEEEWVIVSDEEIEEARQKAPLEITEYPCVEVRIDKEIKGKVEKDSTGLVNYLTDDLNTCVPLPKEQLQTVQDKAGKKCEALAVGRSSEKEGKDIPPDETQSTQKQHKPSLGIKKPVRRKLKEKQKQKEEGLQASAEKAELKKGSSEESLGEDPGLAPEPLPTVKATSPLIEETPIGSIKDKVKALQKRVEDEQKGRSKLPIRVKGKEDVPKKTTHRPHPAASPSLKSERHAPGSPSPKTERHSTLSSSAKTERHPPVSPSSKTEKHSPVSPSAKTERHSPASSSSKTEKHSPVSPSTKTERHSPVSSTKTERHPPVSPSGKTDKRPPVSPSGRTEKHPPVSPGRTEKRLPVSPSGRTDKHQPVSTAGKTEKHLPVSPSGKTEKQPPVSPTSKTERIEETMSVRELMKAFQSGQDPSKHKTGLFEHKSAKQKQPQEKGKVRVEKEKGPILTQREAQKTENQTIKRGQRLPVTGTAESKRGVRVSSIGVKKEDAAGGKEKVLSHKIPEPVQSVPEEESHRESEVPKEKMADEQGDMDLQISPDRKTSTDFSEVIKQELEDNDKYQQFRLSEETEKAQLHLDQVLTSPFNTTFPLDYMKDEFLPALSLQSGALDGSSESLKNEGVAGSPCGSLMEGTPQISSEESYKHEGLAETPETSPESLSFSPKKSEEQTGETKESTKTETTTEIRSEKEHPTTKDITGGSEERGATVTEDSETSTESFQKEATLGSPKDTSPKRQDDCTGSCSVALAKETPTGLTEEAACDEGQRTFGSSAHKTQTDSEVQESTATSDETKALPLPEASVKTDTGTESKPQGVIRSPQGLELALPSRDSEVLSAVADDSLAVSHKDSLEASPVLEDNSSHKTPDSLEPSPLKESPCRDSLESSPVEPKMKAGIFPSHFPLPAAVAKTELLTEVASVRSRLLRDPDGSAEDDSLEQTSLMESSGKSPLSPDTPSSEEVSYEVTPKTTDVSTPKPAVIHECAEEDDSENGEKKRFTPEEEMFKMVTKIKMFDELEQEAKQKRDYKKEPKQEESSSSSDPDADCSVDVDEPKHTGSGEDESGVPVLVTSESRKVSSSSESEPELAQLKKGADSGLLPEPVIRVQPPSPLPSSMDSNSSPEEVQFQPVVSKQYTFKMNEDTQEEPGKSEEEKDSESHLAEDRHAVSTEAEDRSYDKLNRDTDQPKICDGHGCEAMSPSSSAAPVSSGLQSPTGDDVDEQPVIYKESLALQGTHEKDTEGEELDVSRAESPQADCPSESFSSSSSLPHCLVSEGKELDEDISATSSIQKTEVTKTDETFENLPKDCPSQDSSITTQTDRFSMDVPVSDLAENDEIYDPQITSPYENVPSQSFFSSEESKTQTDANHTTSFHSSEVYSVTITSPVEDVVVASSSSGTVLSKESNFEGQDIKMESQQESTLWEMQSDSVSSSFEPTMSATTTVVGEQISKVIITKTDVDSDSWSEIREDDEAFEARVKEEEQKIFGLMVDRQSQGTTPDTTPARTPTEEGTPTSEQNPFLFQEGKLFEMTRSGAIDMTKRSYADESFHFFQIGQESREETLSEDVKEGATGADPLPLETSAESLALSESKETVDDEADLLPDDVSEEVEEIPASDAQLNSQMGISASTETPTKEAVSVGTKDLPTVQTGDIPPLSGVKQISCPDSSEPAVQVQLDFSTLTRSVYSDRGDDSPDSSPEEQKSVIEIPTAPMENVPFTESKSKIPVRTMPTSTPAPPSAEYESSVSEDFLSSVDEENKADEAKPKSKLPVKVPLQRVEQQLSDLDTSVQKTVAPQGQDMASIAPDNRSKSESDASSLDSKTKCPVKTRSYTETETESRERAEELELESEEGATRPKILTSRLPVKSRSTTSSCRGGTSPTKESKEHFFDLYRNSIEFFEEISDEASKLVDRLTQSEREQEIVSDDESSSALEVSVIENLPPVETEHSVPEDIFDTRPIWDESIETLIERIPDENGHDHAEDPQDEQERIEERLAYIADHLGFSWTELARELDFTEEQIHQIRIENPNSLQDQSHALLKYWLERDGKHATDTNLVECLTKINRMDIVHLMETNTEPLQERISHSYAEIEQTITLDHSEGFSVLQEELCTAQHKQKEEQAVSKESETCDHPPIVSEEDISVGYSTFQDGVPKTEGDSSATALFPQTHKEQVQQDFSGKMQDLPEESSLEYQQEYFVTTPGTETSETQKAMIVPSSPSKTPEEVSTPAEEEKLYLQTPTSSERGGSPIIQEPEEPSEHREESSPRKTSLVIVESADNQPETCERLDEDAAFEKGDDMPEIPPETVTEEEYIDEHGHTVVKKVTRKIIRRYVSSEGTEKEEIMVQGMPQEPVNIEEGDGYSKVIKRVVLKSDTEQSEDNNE
Method for Cav2.2 channels: Antibodies: Primary antibody: rabbit anti-pan α1 binds Ca channel (1:200 dilution, [1.5 μg/ml) [Alomone Labs; Jerusalem, Israel]. Secondary antibodies: (1:200 dilution, 10 μg/ml): tetramenthylrhodamine conjugated goat anti-rabbit IgG (H+L) [Molecular Probes; Eugene, OR]
Dorsal root ganglia were dissected from 11 to 12 day old embryos, incubated for 30 min in saline containing nominal Ca 2^+ and Mg 2^+, and 0.05% collagenase (type A, Boehringer Mannheim). Ganglia were dissociated mechanically into single cells by trituration in culture medium containing Dulbecco's modified Eagle's medium supplemented with 10% horse serum, 5% chicken embryo extract, penicillin, streptomycin, glutamine, and nerve growth factor. Cells were plated at a density of ˜50,000 cells/collagen-coated 35 mm tissue culture dish and studied between 1 and 3 days in vitro.
Immunohistochemistry: Cultures grown on poly-L-lysine cover glass slips were exposed to saline or 100 mM NE (norepinephrine), fixed and permeabilized in methanol at −20° C. for 15-minutes or 20 second (for residual experiment) followed by 3×5-min washes in PHEM Buffer [60 mM PIPES, 25 mM HEPES, 10 mM EGTA, 2 mM MgCl2, pH 6.9]. Cells were alternatively fixed with 4% paraformaldehyde in PHEM buffer, pH 6.9 for 20-min, washed 3×3-min with PHEM buffer and permeabilization with 0.1% Triton X-100/PHEM buffer for 3-min. Blocking was performed using 5% BSA in PHEM Buffer for 1-h at 4 C. Following overnight incubation with primary antibody in 1% BSA and 1% normal goat sera in PHEM Buffer at 4 C. After washes with PHEM Buffer, cover slips were incubated with fluorophore-conjugated secondary antibodies in 1% BSA PHEM Buffer for 1.5 hours at room temperature in the dark. […]
Images of fixed cells were obtained with a pinhole setting of 0.95 using a UV 100× 1.4NA oil Leica objective lens and an optical zoom between 1.4 and 2× at slow acquisition speed with 4× frame averaging accumulation. The number of sections was calculated by the Leica TCS software based on acquisition of sections at 240 nm intervals in the Z-plane. […]

Take “RQIKIWFQNRRMKWKKFQGIFSGDENFQ [AP-Scramble]”: the “ankyrin co-localization with L1-CAM at the cell membrane (L1-CAM-ankyrin interactions)” value in experiment [1] is given as “no detectible effects”. The “Cav2.2 channel distribution (plasma membrane vs cytoplasm)” value in the experiment on Cav2.2 channels is “no effect”.

For RQIKIWFQNRRMKWKKQFNEDGSFIGQF [AP-YF], the “ankyrin co-localization with L1-CAM at the cell membrane (L1-CAM-ankyrin interactions)” value in experiment [1] is on record as “inhibited L1-CAM-ankyrin interactions”. Besides, the “Cav2.2 channel distribution (plasma membrane vs cytoplasm)” value in the experiment with Cav2.2 channels is “induces removal of Cav2.2 channels”.
